The record followed here is patent US20030212252A1.

The assay addresses Dog MCH receptor (dog). Description: cell-based or functional assay.

Sequence of Dog MCH receptor (dog) (Q5IJ49 other isoform, or with tags, fused parts or gaps): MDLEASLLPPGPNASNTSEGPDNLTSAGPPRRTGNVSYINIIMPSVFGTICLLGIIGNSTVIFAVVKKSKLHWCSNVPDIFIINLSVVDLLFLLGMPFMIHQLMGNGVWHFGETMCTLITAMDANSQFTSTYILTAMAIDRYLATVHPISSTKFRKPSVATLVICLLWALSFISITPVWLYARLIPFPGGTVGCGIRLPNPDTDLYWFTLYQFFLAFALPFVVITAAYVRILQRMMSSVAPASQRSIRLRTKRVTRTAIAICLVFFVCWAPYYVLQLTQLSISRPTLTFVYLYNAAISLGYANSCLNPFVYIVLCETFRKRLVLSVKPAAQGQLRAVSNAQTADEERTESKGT

Turning to “Melanin-concentrating hormone (MCH) (from UniProt P20382 147-165) (peptide)”, the EC50 for activation of the dog MCH receptor (aequorin bioluminescence, fractional response, in transfected 293-AEQ17 cells) worked out at 30 nM.
